Data on one substance can be found in paper PMC5524996.

This assay addresses IssA (iron-sulfur storage protein A), native thioferrate-bound nanoparticle form from Pyrococcus furiosus (Pyrococcus furiosus). Kind of assay: negative stain TEM; purified native IssA, untreated (20-300 nm) and after 3 M guanidinium chloride, 0.5 mM EDTA, 25 mM DTT (16-22 nm spheres); composition estimated from the volume of a 20 nm sphere, densities and the Fe:protein ratio.

By stoichiometry N is commonly meant a count of units in the complex or per binding partner. As for “IssA (iron-sulfur storage protein A), native thioferrate-bound nanoparticle form from Pyrococcus furiosus (natural protein)”, the stoichiometry N is 170.
